In patent US12383572B2, “Administration of an anti-activin-a compound to a subject” (AMGEN INC., priority 2013, dated 2025):

Tests used:
[1] = system: testicular tumors in inh-KO mice; experiment: Testicular tumor mass by necropsy in male inh-KO mice; format: in vivo, mouse; details: 8-week-old male inh-KO mice, single injection 30 mg/kg SC, necropsy 14 days after
Method: Inh-KO mice. 12-week-old female and 8-week-old male inh-KO mice with fully established ovarian or testicular tumors received a single injection of PBS or sActRIIB (30 mg/kg, SC). As a control, age-matched wild-type littermates received a single injection of PBS. Ovarian and testicular organ weights were determined by necropsy 14 days after the injection.

[2] = system: activin-A (βA) mRNA; experiment: Northern blot of activin-A (βA) mRNA in inh-KO tumors; format: in vivo, mouse; details: inh-KO mice, increase vs WT controls
Method: (§1) Total RNA was isolated from individual tissue samples after homogenization in Trizol (Invitrogen). A pool of 10 μg RNA for each group containing equal amounts of total RNA isolated from individual animals was subjected to Northern blot analysis. The northern probes used for βA and Ang-2 were generated by using RT-PCR (Phusion, Biolabs). βA primer set: 5′-CCCTTGCTTTGGCTGAGAGGA-3′ (SEQ ID NO: 294) and 5′-TC ACA GGT CGT CGT AGG TCG-3′ (SEQ ID NO: 295); Ang-2 primer set: 5′-TGT GCC GGG GAG AAG AG (SEQ ID NO: 296) and 5′-TACAGTAGTGGGTTGAGGTTC-3′ (SEQ ID NO: 297). To normalize the expression, northern blot membranes were re-probed with β-actin.

[3] = system: VEGF; experiment: Serum VEGF immunoassay in inh-KO mice; format: in vivo, mouse; details: inh-KO mice with advanced tumors, single dose
Method: The serum VEGF levels in inh-KO mice were measured by using immunoassay kit (R & D Systems), and the levels of human VEGF and Ang-1 in cell line culture medium were quantified using ELISA kits purchased from Invitrogen (VEGF) and R & D Systems (Ang-1), by following the manufacturers' recommended protocols.

[4] = system: Ang-2 mRNA; experiment: Northern blot of Ang-2 mRNA in inh-KO tumors; format: in vivo, mouse; details: ovarian and testicular tumors, inh-KO mice
Method: as §1

[5] = system: VEGF, Ang-1, osteopontin, CD31 in TOV-21G tumors; experiment: Immunostaining of angiogenesis factors and CD31 in TOV-21G xenograft tumor sections; format: in vivo, human; details: treated vs untreated sections
Method: TOV-21G xenograft. 5×10^6 TOV-21G ovarian cancer cells were implanted subcutaneously into individual female athymic nu/nu mice (Harlan). Treatment was initiated at day 12 after tumor implantation, when the average tumor volume reached approximately 150 mm^3. The mice received PBS, sActRIIB (30 mg/kg, SC, 1×/week) or activin-A antibody (30 mg/kg, SC, 2×/week). In a separate chemotherapy combination experiment, the mice were treated with PBS, sActRIIB (10 mg/kg, SC, 1×/week), 5-FU (50 mg/kg, IP, 3 cycles, 4 daily injections per cycle) or sActRIIB and 5-FU combination at the same doses above. Zinc-formalin fixed paraffin tumor tissue sections of 4 μm in thickness were prepared. The sections were subjected to antigen retrieval by microwave 3 min in Unmask solution (Vector H-3300) followed by incubation in 10 μg/ml Proteinase-K for 20 min and in 1% H2O2 in dH2O for 10 min at room temperature. The sections were further incubated in 0.1% Tween-20 in PBS for 3 min to permeabilize the cell membrane and in goat serum for 30 min to block non-specific binding. The sections were then incubated at room temperature with specific primary antibody for 3 hours followed by incubation in biotinylated or fluorescently labeled secondary antibody. […] The immunostained tissue sections were analyzed and photographed using a Nikon Eclipse 90i microscope equipped with DS-Ril camera. […]

[6] = sActRIIB single dose, withdrawal and re-administration in female Inhα KO mice: body weight; format: in vivo, mouse
Method: (§2) Eleven-to-fourteen-week-old female Inhα KO mice with body weight from 19.41 to 26.82 grams were subcutaneously (SC) injected with either 30 mg/kg sActRIIB or PBS. Age-matched WT littermate control mice were injected with PBS and served as baseline controls. The study ended by necropsy 2 weeks after injections. Two cohorts of mice were used in the study. Eleven-to-thirteen-week-old female Inhα KO mice with body weight from 17.7 to 27.4 grams were SC injected with either 30 mg/kg sAcLRIIB or PBS. Age-matched WT littermate control mice were injected with PBS and served as baseline controls. The withdrawal lasted for 8 weeks. At the end of the withdrawal, the sActRIIB treated mice were divided by balanced body weight into 2 groups (Group 3 and Group 4).
(§3) Group 2 and Group 3 were euthanized to examine the ovarian tumors. Group 4 received another dose of 30 mg/kg sActRIIB and the mice were euthanized together with the WT mice 4 weeks later (total 12 weeks). Mouse body weights were recorded once per week up to 12 weeks. For necropsy, mice were euthanized in a CO2 chamber. Normal ovaries in WT mice and ovarian tumors in Inhα KO mice were collected and weighed. All results were expressed as the mean±standard error of the mean (SEM). Statistical significance of difference between groups was analyzed using Student's 2-tailed t-test on MS Excel 5.0 software. […]

[7] = sActRIIB single dose in female Inhα KO mice: survival; format: in vivo, mouse
Method: as §2, §3

B1: sActRIIB: extracellular domain of human activin type-2B receptor fused to IgG2 Fc; full length SEQ ID NO: 21 (Table 9) (protein, listed as Homo sapiens)
chain: ETRWCIYYNANWELERTNQSGLERCEGEQDKRLHCYASWRNSSGTIELVKKGCWLDDFNCYDRQECVATEENPQVYFCCCEGNFCNERFTHLPEAGGPEVTYEPPPTAPTGGGGSVECPPCPAPPVAGPSVFLFPPKPKDTLMISRTPEVTCVVVDVSHEDPEVQFNWYVDGVEVHNAKTKPREEQFNSTFRVVSVLTVVHQDWLNGKEYKCKVSNKGLPAPIEKTISKTKGQPREPQVYTLPPSREEMTKNQVSLTCLVKGFYPSDIAVEWESNGQPENNYKTTPPMLDSDGSFFLYSKLTVDKSRWQQGNVFSCSVMHEALHNHYTQKSLSLSPGK
[1]
  testicular tumor mass: dramatic regression of testicular tumor masses to the WT control levels
[2]
  levels of βA transcripts in the tumors: completely blocked
[3]
  serum VEGF: rapidly lowered the elevated VEGF to WT control levels
[4]
  Ang-2 mRNA expression in tumors: inhibited its overexpression
[5]
  CD31 immunostaining (newly formed microvessels): lack of such new microvessels
  VEGF and Ang-1 immunostaining in tumor sections: virtually none in the sActRIIB-treated sections
[6]; 30 mg/kg SC single dose
  body weight, first 4 weeks after single dose: sustained weight gain in Inhα KO mice that exceeded the level of WT littermate control
[6]; second single dose 30 mg/kg
  body weight after re-administration at week 8 (up to week 12): stimulated further weight gain
[7]; single dose 30 mg/kg SC
  survival rate at week 8: 94%
[7]; single dose, chi-square test
  survival curves, sActRIIB vs. PBS: significantly different
